# From patent US20220153796A1
# Target: HLA-A*24 (human)
# Experiment: UV peptide exchange ELISA
row,peptide exchange yield [%],Binder
1,> 75,KYKDYFPVI
2,10 to 20,AYTLLGHEFV
3,50 to 75,TYLSIFDQL
4,> 75,VMPSDSFFF
5,> 75,KYADYFLEV
6,> 75,AFPVTSIFHTF
7,> 75,QYQNVLTLW
8,> 75,VWSDVTPLNF
9,50 to 75,LLIKLLQTF
10,> 75,YYSKSVGFMQW
11,> 75,PYTNYTFDF
12,> 75,VFIDHPVHLKF
13,> 75,NYAIFDEGHML
14,> 75,VYPLLSRLYW
15,> 75,TQPGDWTLF
16,> 75,LYISEVRNI

row,peptide exchange yield [%],Binder
1,> 75,LYQEILAQL
2,> 75,MQPRMFFLF
3,> 75,RYMKKDYLI
4,> 75,HYTYILEVF
5,> 75,KFIISDWRF
6,> 75,SLPDLTPTF
7,> 75,SYMVLAPVF
8,> 75,KYMKIFHKF
9,50 to 75,NYAENILTL
10,> 75,RWMDQRLVF
11,> 75,IYFRDSSFL
12,> 75,KYTNWKAFL
13,> 75,VWSNVTPLKF
14,10 to 20,STIRGELFFF
15,50 to 75,YYADKKTFIVL

# More lines, now with the values behind:
row,Binder,peptide exchange yield [%]
1,QFAAPLRGIYF,> 75
2,SYSSCYSF,50 to 75
3,TLPNTIYRF,> 75
4,KSSVIASLLF,50 to 75
5,KTPTNYYLF,> 75
6,VYPASKMFPFI,> 75
7,PFLPPAACFF,> 75
8,YPSIIQEF,> 75
9,SYIGLPLTL,50 to 75
10,SYPELVKMVW,> 75
11,TYNPDFSSL,50 to 75
12,QWPWQASLQF,> 75
13,MYPDLSELLM,> 75
14,DYIGSVEKW,> 75
15,KYSTTFFMV,20 to 50
16,EFTTVLYNF,> 75
17,SYEKVINYL,> 75
18,IQMDEPMAF,10 to 20
19,VQQWSVAVF,50 to 75
20,WYGWHFPEL,50 to 75
21,NYTLYPITF,> 75
22,SYNGYVFYL,> 75

row,Binder,peptide exchange yield [%]
1,KQMEDGHTLF,20 to 50
2,VYDQYFITL,> 75
3,KYALLLQEL,> 75
4,NYIYSISVF,> 75
5,AYLSAVGTF,> 75
6,QYEPPSAPSTTF,50 to 75
7,QYLPGWTVLF,> 75
8,ILKEDPFLF,10 to 20
9,RYPGKFYRV,> 75
10,KYFVPPQLF,> 75
11,VYMIEPLEL,> 75
12,YYSIISHTL,> 75
13,KYLEESVWL,> 75
14,IYQQIIQTY,> 75
15,QYDPTPLTW,> 75
16,YLEKFYGL,20 to 50
17,RYEGILYTI,> 75
18,IMPEKFEFW,> 75
19,KYITNLEDL,> 75
20,KYALLLQDL,> 75
21,LIFMLANVF,10 to 20
22,SYEVRSTF,50 to 75
